In US20250270301A1 (GEN2 NEUROSCIENCE, published 2025):
Where a chain is given by its changes, count along the chain named.

B1: #44 VH3VK2 humanised hIgG1 (antibody, V domains shown)
VH: QVQLQESGPGLVKPSETLSLTCTVSGIDLSSYAMAWVRQAPGKGLEWIGCIDRRGGTFYASWVKGRFTISKTSTTVDLQMTSLTAEDTATYFCARDSGAFDPWGQGTLVTVSS
VL: QIVMTQSPSSLSASVGDRVTITCQASQSVYDNYLAWYQQKPGQPPKLLIHAASNLASGVPSRFKGSGSGTEFTLTISSLQPDDFATYYCLGEFSCTTTDCNVFGGGTKVEIK
notes: also called VH3Vκ2
B2: #44 VH1VK2 humanised hIgG1 (antibody, V domains shown)
VH: QSVQESGGGLVKPSETLSLTCTVSGIDLSSYAMAWVRQAPGKGLEWIGCIDRRGGTFYASWVKGRFTISKTSTTVDLKMTSLTAEDTATYFCARDSGAFDPWGQGTLVTVSS
VL: B1 VL
notes: also called VH1Vκ2
B3: #44 VH1VK1 humanised hIgG1 (antibody, V domains shown)
VH: B2 VH
VL: B1 VL with G58R, P81C, K108E, E110V
notes: also called VH1Vκ1
B4: #44 VH5VK2 humanised hIgG1 (antibody, V domains shown)
VH: QVQLQESGPGLVKPSETLSLTCTVSGIDLSSYAMAWVRQAPGKGLEWIGCIDRRGGTFYASWVKGRFTISRDNSKNTLDLQMTSLTAEDTATYYCARDSGAFDPWGQGTLVTVSS
VL: B1 VL
notes: also called VH5Vκ2
B5: #44 VH3VK1 humanised hIgG1 (antibody, V domains shown)
VH: B1 VH
VL: B1 VL with G58R, P81C, K108E, E110V
notes: also called VH3Vκ1
B6: #44 VH5VK3 humanised hIgG1 (antibody, V domains shown)
VH: B4 VH
VL: B1 VL with Q1D, V3Q
notes: also called VH5Vκ3
B7: #44 VH5VK1 humanised hIgG1 (antibody, V domains shown)
VH: B4 VH
VL: B1 VL with G58R, P81C, K108E, E110V
notes: also called VH5Vκ1
B8: #44 VH5VK4 humanised hIgG1 (antibody, V domains shown)
VH: B4 VH
VL: B1 VL with Q1D, V3Q, K64S
notes: also called VH5Vκ4
B9: #44 VH4VK1 humanised hIgG1 (antibody, V domains shown)
VH: B4 VH with R71K, N73T, N76T, L78V, Y94F
VL: B1 VL with G58R, P81C, K108E, E110V
notes: also called VH4Vκ1
B10: #44_VH4VK4_H06-H02/pVL (antibody, V domains shown)
VH: QVQLQESGPGLVKPSETLSLTCTVSGIDLSSYAMAWVRQAPGKGLEWIGVIDAAGHTFYASWVKGRFTISKDTSKTTVDLQMTSLTAEDTATYFCARDRGDFDVWGQGTLVTVSS
VL: B1 VL with Q1D, V3Q, K64S
notes: also called H06-02/pVL; Clone VH4_H06_H02
B11: #44_VH4VK4_H06-H04/pVL (antibody, V domains shown)
VH: B10 VH with R99A, D101S, D103H, V104P
VL: B1 VL with Q1D, V3Q, K64S
notes: also called H06-04/pVL; Clone VH4_H06_H04
B12: #44_VH4VK4_H16-H04/pVL (antibody, V domains shown)
VH: B10 VH with V50A, A53R, H56N, R99A, D101S, D103H, V104P
VL: B1 VL with Q1D, V3Q, K64S
notes: also called Clone VH4_H16_H04; #44_VH4_H16-H04
B13: #44_VH4VK4_H06-H01/pVL (antibody, V domains shown)
VH: B10 VH with R99V, D101S
VL: B1 VL with Q1D, V3Q, K64S
notes: also called H06-01/pVL; Clone VH4H_06_H01
B14: #44_VH4_H07/L2 (antibody, V domains shown)
VH: B10 VH with V50A, H56N, R99S, D101A, V104P
VL: DIQMTQSPSSLSASVGDRVTITCQASQSVYDNYLAWYQQKPGQPPKLLIHAASNLASGVPSRFSGSGSGTEFTLTISSLQPDDFATYYCLGEFSCQDTDCNVFGGGTKVEIKR
notes: also called Clone VH4_H07/L2
B15: #44_VH4_H09/L2 (antibody, V domains shown)
VH: B10 VH with V50A, A54R, H56N, R99S, D101A, V104P
VL: B14 VL
notes: also called Clone VH4_H09/L2
B16: #44_VH4_H06/L2 (antibody, V domains shown)
VH: B10 VH with R99S, D101T, V104P
VL: B14 VL
notes: also called Clone VH4_H06/L2
B17: #44_VH4_H14/L2 (antibody, V domains shown)
VH: B10 VH with V50A, A53S, H56S, F67S, R99S, D101A, V104P
VL: B14 VL
notes: also called Clone VH4_H14/L2
B18: #44_VH4_H13/L2 (antibody, V domains shown)
VH: B10 VH with V50A, A53S, H56N, R99S, D101A, V104P
VL: B14 VL
notes: also called Clone VH4_H13/L2
B19: #44 VH6VK2 humanised hIgG1 (antibody, V domains shown)
VH: B4 VH with A35S, I48V, G49S
VL: B1 VL
notes: also called VH6Vκ2
B20: #44 VH6VK4 humanised hIgG1 (antibody, V domains shown)
VH: B4 VH with A35S, I48V, G49S
VL: B1 VL with Q1D, V3Q, K64S
notes: also called VH6Vκ4
B21: #44 VH6VK3 humanised hIgG1 (antibody, V domains shown)
VH: B4 VH with A35S, I48V, G49S
VL: B1 VL with Q1D, V3Q
notes: also called VH6Vκ3

The binders below were run against T1, full length recombinant human 2N4R tau (human, UniProt P10636 1-758) (assay: SPR SCK, IgG on Protein A, tau in flow).
T1 construct: bought from rPeptide; pHrodo Red maleimide-labelled where it stands in uptake assays; also called tau1-441; full length tau
T1 sequence (P10636 other isoform, or with tags, fused parts or gaps limits assumed): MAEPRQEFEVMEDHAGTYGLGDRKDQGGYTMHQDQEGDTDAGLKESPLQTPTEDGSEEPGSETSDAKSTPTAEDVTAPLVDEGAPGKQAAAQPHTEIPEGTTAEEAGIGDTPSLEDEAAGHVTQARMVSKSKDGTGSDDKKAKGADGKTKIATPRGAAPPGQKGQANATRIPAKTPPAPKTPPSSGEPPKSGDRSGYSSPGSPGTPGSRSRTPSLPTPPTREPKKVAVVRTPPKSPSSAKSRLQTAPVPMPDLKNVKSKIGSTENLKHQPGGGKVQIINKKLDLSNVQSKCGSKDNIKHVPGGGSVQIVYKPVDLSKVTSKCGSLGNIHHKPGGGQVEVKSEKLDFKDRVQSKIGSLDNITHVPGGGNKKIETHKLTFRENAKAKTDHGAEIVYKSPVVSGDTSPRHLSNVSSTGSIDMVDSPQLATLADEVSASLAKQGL
Description: 21.5 Assessment of antibody binding to tau (Biacore SCK analysis): Binding of anti-tau hIgG1 to full length recombinant 2N4R tau (Rpeptide; SEQ ID NO: 2) was assessed using the Biacore T200 (GE Healthcare, Chicago, IL, USA) running Biacore T200 Evaluation Software V2.0.1. hIgG1 were immobilised on a Protein A capture sensor chip in running buffer (HBS-EP+ buffer containing 1 mg/mL BSA) at 25° C., captured to ˜50 RU at 10 μL/min. For single-cycle kinetics experiments, recombinant 2N4R tau was flowed at concentrations ranging from 1.25 nM to 10 nM (2-fold dilutions) with an association time of 60 s and a dissociation time of 200 s. Curves were compared to a reference cell that was mock immobilized (no antibody present).

Kd [nM]	Relative KD (to VH0VK0)	koff [s⁻¹]	kon [M⁻¹ s⁻¹]	Binder
7.64	1.99	0.0356	4.66e+06	B1
4.26	1.11	0.0232	5.43e+06	B2
3.16	0.83	0.0232	7.35e+06	B3
12.6	3.29			B4
4.35	1.14	0.0121	2.79e+06	B5
14.2	3.71	0.0406	2.86e+06	B6
8.31	2.17	0.187	2.25e+07	B7
9.63	2.51	0.0684	7.11e+06	B8
6.81	1.78	0.03	4.4e+06	B9

Target: T1, full length recombinant human 2N4R tau
Assay: SPR SCK, IgG on Protein A, tau in flow
Remark: another data set of the same source

Fold change (KD, to pVH/pVL)	Kd [nM]	koff [s⁻¹]	kon [M⁻¹ s⁻¹]	Binder
7.73	0.851	0.00489	5.75e+06	B10
9.11	0.722	0.00443	6.14e+06	B11
7.88	0.835	0.00417	4.99e+06	B12
1.71	3.85	0.0121	3.15e+06	B13
0.26	24.9	0.0124	497000	B14
0.45	14.6	0.0106	728000	B15
3.54	1.86	0.00841	4.52e+06	B16
0.52	12.6	0.0161	1.28e+06	B17
0.28	23.5	0.00844	358000	B18

Each binder was assayed against T2, Bovine serum albumin (bovine, UniProt P02769 25-607) (assay: ELISA on 1% BSA, HEK supernatant, anti-human IgG-HRP, n=1).
T2 construct: also called BSA
T2 sequence (P02769 25-607 limits assumed): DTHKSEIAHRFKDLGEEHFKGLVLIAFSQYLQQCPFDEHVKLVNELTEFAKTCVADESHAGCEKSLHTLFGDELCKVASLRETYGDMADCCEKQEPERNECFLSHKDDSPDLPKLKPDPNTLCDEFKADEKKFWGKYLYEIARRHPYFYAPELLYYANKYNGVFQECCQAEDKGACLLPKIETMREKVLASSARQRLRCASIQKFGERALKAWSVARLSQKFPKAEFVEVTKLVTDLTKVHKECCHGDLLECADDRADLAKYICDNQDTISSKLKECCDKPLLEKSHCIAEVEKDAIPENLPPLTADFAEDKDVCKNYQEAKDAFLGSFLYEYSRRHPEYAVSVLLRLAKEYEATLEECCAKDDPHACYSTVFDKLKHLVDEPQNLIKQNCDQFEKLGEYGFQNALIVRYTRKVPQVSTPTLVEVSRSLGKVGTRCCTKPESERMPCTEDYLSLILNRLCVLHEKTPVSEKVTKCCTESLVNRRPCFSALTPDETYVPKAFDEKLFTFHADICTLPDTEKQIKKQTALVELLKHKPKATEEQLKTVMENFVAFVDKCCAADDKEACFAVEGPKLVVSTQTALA
Description: FIG. 7. A panel of humanised anti-tau IgG bind to full length recombinant 2N4R tau in an ELISA format. Supernatants from HEK cells transiently transfected with each IgG clone were tested at 1:100 for binding to full length recombinant 2N4R tau (solid bars). […] Binding of anti-tau hIgG1 was detected using an HRP-conjugated anti-human secondary antibody and data are shown from a representative experiment (n=1 replicate).
Antigen was removed from wells and the plates were then blocked for 1 hour at RT with 5% dried milk in 1×TBS. Blocking solution was removed, HEK293 cell supernatant (1:100 in 1% BSA/1×TBS) was added to relevant wells, and plates were incubated for 1 hour at RT with gentle shaking. Plates were then washed four times with TBS/0.1% Tween (TBST). Goat anti-human IgG-HRP antibody (Thermo Fisher Scientific, Waltham, MA, USA), diluted 1:2000 in 5% milk/TBS, was added to each well and plates were incubated for 1 hour at RT with gentle shaking before being washed four times with TBST. 3,3′,5,5′-tetramethylbenzidine (TMB) ELISA solution was added to each well and plates were incubated for 15 mins at RT. An equal volume of 1 M sulfuric acid was added to each well and OD was measured at 450 nm.

binding result	Binder
no binding (tested: supernatant 1:100)	B1
no binding (tested: supernatant 1:100)	B2
no binding (tested: supernatant 1:100)	B3
no binding (tested: supernatant 1:100)	B19
no binding (tested: supernatant 1:100)	B4
no binding (tested: supernatant 1:100)	B5
no binding (tested: supernatant 1:100)	B20
no binding (tested: supernatant 1:100)	B6
no binding (tested: supernatant 1:100)	B7
no binding (tested: supernatant 1:100)	B21
no binding (tested: supernatant 1:100)	B8
no binding (tested: supernatant 1:100)	B9
